System: dCas9 (SpCas9 D10A/H840A) D10A,H840A (Streptococcus pyogenes)
Details: nanochannel imaging; NEB Buffer 3, BSA, 37 C 60 min; about 16% of labels off-target; PAM not stated

## DUF1220 crRNA (with tracrRNA-ATTO647) ; linearized BAC DNA with DUF1220 repeats
  activity (% target sites labeled): 86

Reference: US20210230664
